Laboratory results from article PMC10496494.

Assays:
[1] = target: DDX24^E271K (DDX24 with the p.Glu271Lys mutation of MOVLD patients) (human) (UniProt Q9GZR7); assay: SPR; Biacore T200; DDX24 immobilised on CM5 chip by amine coupling, NPM1 injected in a concentration series; PBS with 0.05% Tween-20 and 1% DMSO, pH 7.4, 25 °C; Langmuir 1:1 binding model
[2] = target: NPM1 (human wildtype nucleophosmin, residues 1 to 290) (human) (UniProt P06748); assay: SPR; Biacore T200; NPM1 immobilised on CM5 chip by amine coupling, DDX24 injected in a concentration series; PBS with 0.05% Tween-20 and 1% DMSO, pH 7.4, 25 °C; Langmuir 1:1 binding model
Sequence of NPM1 (human wildtype nucleophosmin, residues 1 to 290) (human) (P06748 1-290): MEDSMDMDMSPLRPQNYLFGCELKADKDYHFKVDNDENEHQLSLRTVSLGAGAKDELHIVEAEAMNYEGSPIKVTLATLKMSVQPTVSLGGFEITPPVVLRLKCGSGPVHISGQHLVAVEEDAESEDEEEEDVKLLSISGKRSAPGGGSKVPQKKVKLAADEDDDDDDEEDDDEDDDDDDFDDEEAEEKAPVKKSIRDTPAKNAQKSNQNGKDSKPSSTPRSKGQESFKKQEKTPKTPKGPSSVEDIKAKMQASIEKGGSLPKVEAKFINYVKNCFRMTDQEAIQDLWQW

Sequence of NPM1 (human wildtype nucleophosmin, residues 1 to 290) (P06748 1-290): as above

Row | Substance | Kd [1] [nM] | koff [1] [s⁻¹] | kon [1] [M⁻¹ s⁻¹] | Kd [2] [nM] | koff [2] [s⁻¹] | kon [2] [M⁻¹ s⁻¹]
1 | NPM1 (human wildtype nucleophosmin, residues 1 to 290) (from UniProt P06748 1-290) (natural protein) | 2.92 | 0.00165 | 564000 |  |  | 
2 | DDX24^E271K (DDX24 with the p.Glu271Lys mutation of MOVLD patients) (from UniProt Q9GZR7 28-859) (enzyme) |  |  |  | 5.5 | 0.00316 | 575000
